Values quoted from earlier work in publication PMC3201939.

Target: Cys22 (UniProt position 23, FIKPTCPYCRR)

For “Glutaredoxin 1 (Grx1, thioltransferase) (Homo sapiens)”, the pKa is listed as 3.5.
